Results on 4 molecules are retold here after patent US20090104205A1 (AstraZeneca / MedImmune, published 2009).

The target in test [1] is T1, C-terminal truncated RSV F protein (secreted, from recombinant baculovirus) (respiratory syncytial virus, UniProt P03420 26-524).
T1 construct: also called immobilized F protein
In words: SPR (BIAcore), F protein amine-coupled, Mab injected at 25-300 nM. Background: Surface plasmon resonance follows binding to a sensor surface in real time, without labels.

In test [2] the target is T1, C-terminal truncated RSV F protein …. In words: SPR (BIAcore), F protein amine-coupled, Kd = kd/ka.
Test [3] has as its target T2, RSV F protein (native, from RSV virus or RSV infected HEP2 cell lysate) (respiratory syncytial virus, UniProt P03420 26-574).
T2 construct: In the ELISA the antigen was whatever the Mu1331 anti-F antibody captured from the infected cell lysate; also called RSV F antigen; RSV F glycoprotein
In words: capture ELISA: RSV infected HEP2 cell lysate captured on Mu1331 antibody; double reciprocal plot of OD vs antibody concentration. On the technique in general: ELISA stands for enzyme-linked immunosorbent assay.

T1 sequence (P03420 26-524): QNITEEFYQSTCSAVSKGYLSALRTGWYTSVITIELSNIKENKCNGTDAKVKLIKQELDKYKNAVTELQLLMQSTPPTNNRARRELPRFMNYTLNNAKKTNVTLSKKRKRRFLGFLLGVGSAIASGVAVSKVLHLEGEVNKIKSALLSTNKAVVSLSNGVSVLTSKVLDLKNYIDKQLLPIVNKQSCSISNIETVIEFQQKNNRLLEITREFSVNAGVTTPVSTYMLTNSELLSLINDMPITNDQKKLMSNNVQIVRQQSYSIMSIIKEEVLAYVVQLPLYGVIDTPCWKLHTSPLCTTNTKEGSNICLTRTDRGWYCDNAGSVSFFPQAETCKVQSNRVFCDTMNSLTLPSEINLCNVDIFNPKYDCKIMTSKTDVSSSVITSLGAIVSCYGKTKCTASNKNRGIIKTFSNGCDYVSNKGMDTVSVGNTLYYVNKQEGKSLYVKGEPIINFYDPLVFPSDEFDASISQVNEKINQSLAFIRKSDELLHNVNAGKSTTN
T2 sequence (P03420 26-574): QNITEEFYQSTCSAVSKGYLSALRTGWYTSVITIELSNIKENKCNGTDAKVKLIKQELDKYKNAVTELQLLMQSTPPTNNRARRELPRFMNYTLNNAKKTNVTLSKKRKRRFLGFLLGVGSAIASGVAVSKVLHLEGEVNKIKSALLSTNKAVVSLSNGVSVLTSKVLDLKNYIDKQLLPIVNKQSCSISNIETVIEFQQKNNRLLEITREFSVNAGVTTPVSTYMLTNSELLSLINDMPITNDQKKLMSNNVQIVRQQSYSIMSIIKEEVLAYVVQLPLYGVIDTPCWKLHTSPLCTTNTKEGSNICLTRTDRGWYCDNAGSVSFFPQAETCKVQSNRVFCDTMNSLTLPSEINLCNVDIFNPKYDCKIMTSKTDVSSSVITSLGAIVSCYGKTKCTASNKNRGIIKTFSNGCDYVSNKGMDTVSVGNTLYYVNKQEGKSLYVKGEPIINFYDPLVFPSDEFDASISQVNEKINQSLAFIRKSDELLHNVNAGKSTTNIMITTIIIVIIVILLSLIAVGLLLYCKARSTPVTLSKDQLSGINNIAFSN

B1: murine monoclonal antibody MAb 1308F (antibody, V domains shown)
VH: EVQKQQSGAELVRPGALVKLSCKASGFNIKDYYIYWVKQRPEQGLEWIGWIDPENGNTVFDPLFQGKASITSDTSSNTAYLQLSSLTSEDTAVYYCAYYGTSSFDFWGQGTTLTVSS
VL: DIKMTQSPSSMYVSLGERVTITCKASQDINRYLNWFQQKPGKSPKTLIHRANRLVDGVPSRFSGSGSGQEYSLTISSLEFEDMGIYYCLQFHEFPYTFGGGTKLEIL
notes: also called M1308F; Mu1308F
Turning to B1, in test [1], the koff – broadly, the rate constant with which the complex falls apart – was 3.8e-05 s⁻¹; the kon (as a rule, a measure of how fast the partners come together) turned out to be 35000 M⁻¹ s⁻¹; the “t1/2 (dissociation half-life)” value worked out at 5.1 h. In addition, the Kd (commonly the constant that tells how readily two partners part at equilibrium) in test [2] came to 1.1 nM.

B2: humanized 1308F (CDR-grafted anti-RSV F antibody, human IgG1/kappa) (antibody, V domains shown)
VH: QVQLVQSGAEVKKPGASVKVSCKASGFNIKDYYIYWVRQAPGQGLEWIGWIDPENGNTVFDPKFNGRVTMTRDTSTSTVYMELSSLRSEDTAVYYCAYYGTSSFDFWGQGTTLTVSS
VL: DIQMTQSPSTLSASVGDRVTITCKASQDINRYLNWYQQKPGKAPKLLIYRANRLVDGVPSRFSGSGSGTEFTLTISSLQPDDFATYYCLQFHEFPYTFGGGTKLEIL
notes: also called H1308F; Hu1308F
As to B2, in test [1], the koff came to 5.5e-05 s⁻¹, the kon stood at 22000 M⁻¹ s⁻¹ and the “t1/2 (dissociation half-life)” value stood at 3.5 h. For the same molecule, in test [2], the Kd came to 2.5 nM.

B3: murine monoclonal antibody MAb 1129 (antibody, V domains shown)
VH: QVELQESGPGILQPSQTLSLTCSFSGFSLSTSGMSVGWIRQPSGEGLEWLADIWWDDKKDYNPSLKSRKTISKDTSSNQVFLKITGVDTADTATYYCARSMITNWYFDVWGAGTTVTVSS
VL: DIQLTQSPAIMSASPGEKVTMTCSASSSVGYMHWYQQKSSTSPKLWIYDTSKLASGVPGRFSGSGSGNSYSLTISSIQAEDVATYYCFQGSGYPFTFGGGTKLEIK
notes: also called M1129
With B3, in test [1], the off-rate constant (koff) turned out to be 0.0004 s⁻¹, the kon stood at 35000 M⁻¹ s⁻¹ and the “t1/2 (dissociation half-life)” value came to 0.48 h. Also, the Kd in test [2] came out at 11.4 nM.

B4: humanized 1129 (CDR-grafted anti-RSV F antibody, human IgG1/kappa) (antibody, V domains shown)
VH: QVTLRESGPALVKPTQTLTLTCTFSGFSLSTSGMSVGWIRQPPGKALEWLADIWWDDKKDYNPSLKSRLTISKDTSKNQVVLKVTNMDPADTATYYCARSMITNWYFDVWGAGTTVTVSS
VL: DIQMTQSPSTLSASVGDRVTITCKCQLSVGYMHWYQQKPGKAPKLWIYDTSKLASGVPSRFSGSGSGTEFTLTISSLQPDDFATYYCFQGSGYPFTFGGGTKLEIK
notes: also called H1129; Hu1129
In the case of B4, in test [1], the off-rate (koff) was found to be 6.9e-05 s⁻¹, the kon stood at 49000 M⁻¹ s⁻¹ and the “t1/2 (dissociation half-life)” value is 2.8 h. In addition, the Kd in test [2] is 1.4 nM. The same molecule showed a Kd in test [3] of 0.7 nM.
